Numbering of substitutions follows the chain as printed. One block for each binder: values may come before it.
Molecular target: C3G-based poly-Pro peptide ligand
Assay: other fluorescence titration; fluorescence-based titration assay as described in Camarero et al., 2001b; conditions not given here

Kd: 430 nM
B1: SH3_(circ-Δ), backbone-cyclized N-terminal SH3 domain of c-Crk lacking Ala134 and Glu135 (Cys + residues 136-191) (domain or fragment)
chain: CYVRALFDFNGNDEEDLPFKKGDILRIRDKPEEQWWNAEDSEGKRGMIPVPYVEKYG
modifications: backbone cyclized: cyclo-[...], peptide bond between the N-terminal Cys and the C-terminal Gly191

Kd: 890 nM
B2: SH3_(circ-wt), backbone-cyclized N-terminal SH3 domain of c-Crk (Cys-Gly + residues 134-191) (domain or fragment)
chain: CGAEYVRALFDFNGNDEEDLPFKKGDILRIRDKPEEQWWNAEDSEGKRGMIPVPYVEKYG
modifications: backbone cyclized: cyclo-[...], peptide bond between the N-terminal Cys and the C-terminal Gly191

Kd: 870 nM
B3: SH3_(lin-wt), linear N-terminal SH3 domain of c-Crk (residues 134-190 with an additional Gly191) (domain or fragment)
chain: AEYVRALFDFNGNDEEDLPFKKGDILRIRDKPEEQWWNAEDSEGKRGMIPVPYVEKYG

Kd: 470 nM
B4: SH3_(circ-GΔ), backbone-cyclized N-terminal SH3 domain of c-Crk lacking Ala134 and Glu135 (Cys-Gly + residues 136-191) (domain or fragment)
chain: B3 chain with A1C, E2G
modifications: backbone cyclized: cyclo-[...], peptide bond between the N-terminal Cys and the C-terminal Gly191
